Assay results from publication PMC10853802, “ESRP1 controls biogenesis and function of a large abundant multiexon circRNA”.
Numbering of substitutions follows the chain as printed.

T1: ESRP1 qRRM2 F335A (human, UniProt Q6NXG1 312-430, F335A)
T1 sequence: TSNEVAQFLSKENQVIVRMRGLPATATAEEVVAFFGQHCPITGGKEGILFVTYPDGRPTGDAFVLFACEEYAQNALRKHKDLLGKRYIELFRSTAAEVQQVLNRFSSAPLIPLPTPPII

T2: ESRP1 qRRM2 Y398A (human, UniProt Q6NXG1 312-430, Y398A)
T2 sequence: T1 sequence with A24F, Y87A

T3: ESRP1 qRRM2 R397A (human, UniProt Q6NXG1 312-430, R397A)
T3 sequence: T1 sequence with A24F, R86A

T4: ESRP1 qRRM2 WT (human, UniProt Q6NXG1 312-430)
T4 sequence: T1 sequence with A24F


Experiments:
Conditions in all cases: protein: recombinant; tags: His-SUMO removed by Ulp1
ESRP1 qRRM2 F335A = target: T1, ESRP1 qRRM2 F335A; assay: ITC; ITC: 100 mM NaCl, 10 mM Tris-HCl pH 8.0, 25 C; 300 uM protein injected into 20 uM RNA
ESRP1 qRRM2 Y398A = target: T2, ESRP1 qRRM2 Y398A; assay: as above
ESRP1 qRRM2 R397A = target: T3, ESRP1 qRRM2 R397A; assay: as above
ESRP1 qRRM2 WT = target: T4, ESRP1 qRRM2 WT; assay: X-ray crystallography (1.65 A); ITC: 100 mM NaCl, 10 mM Tris-HCl pH 8.0, 25 C; 300 uM protein injected into 20 uM RNA

Binder | binding result (ESRP1 qRRM2 F335A) | binding result (ESRP1 qRRM2 Y398A) | binding result (ESRP1 qRRM2 R397A) | binding result (ESRP1 qRRM2 WT)
UGGUGG (ssRNA) [6-mer RNA] | no binding | no binding | no binding | 
UGGUGGUGGUGG (ssRNA) [12-mer RNA] |  |  |  | binds
